US20240261333A1 (published 2024)

Columns and labels:
NAP1L1 = target: T1, NAP1L1 (human, UniProt P55209 2-388); assay: co-IP with anti-FLAG, N-FLAG B3GNT2, mass spectrometry
T1 construct: also called NP_001294853.1 (+1)
T1 sequence (looked up): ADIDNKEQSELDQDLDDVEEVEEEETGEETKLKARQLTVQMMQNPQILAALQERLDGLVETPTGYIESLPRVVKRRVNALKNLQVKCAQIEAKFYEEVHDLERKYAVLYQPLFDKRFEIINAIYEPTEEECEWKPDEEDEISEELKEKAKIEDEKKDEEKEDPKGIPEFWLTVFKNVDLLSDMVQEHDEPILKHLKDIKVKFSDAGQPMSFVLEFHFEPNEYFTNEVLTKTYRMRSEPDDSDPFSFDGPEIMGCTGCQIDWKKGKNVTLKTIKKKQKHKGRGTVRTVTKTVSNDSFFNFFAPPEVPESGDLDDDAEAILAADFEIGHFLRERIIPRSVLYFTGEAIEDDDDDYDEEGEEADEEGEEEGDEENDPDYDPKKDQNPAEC

RPL11 = RPL11 (UniProt P62913 2-177); assay: co-IP with anti-FLAG, mass spectrometry; N-FLAG B3GNT2
Method: (§1) Cells were plated in 10-cm cell culture dishes and grown to 60-80% confluency. For each condition, two biological replicates were harvested for co-IP. Cells were washed with PBS and 4 mL of lysis buffer (20 mM HEPES, 1% Triton X-100, 150 mM NaCl, 1 mM EDTA, and 10% glycerol) containing protease inhibitor cocktail was added. Cells were scraped and lysate was incubated at 4° C. under rotary agitation for 1 h. Lysate was centrifuged at 14,000×g for 10 min at 4° C. Supernatant was transferred to a new tube and an aliquot was taken as the input. […] For Western blots, 10 μg/mL Chicken Anti-FLAG (Aves labs ET-DY100) and IgY control (R&D Systems AB-101-C) antibodies were biotinylated (Thermo Fisher Scientific 90407) and added to the respective conditions. Lysates with antibodies were incubated at 4° C. under rotary agitation overnight. For each mL of lysate, 50 μL of Pierce Protein A/G Magnetic Beads (Mass spectrometry; Thermo Fisher Scientific 88803) or Pierce Streptavidin Magnetic Beads (Western blot; Thermo Fisher Scientific 88817) was washed twice with lysis buffer. Lysates with antibodies were added to the beads and incubated at 4° C. under rotary agitation for 4 h. Beads were washed with lysis buffer 3 times and resuspended in lysis buffer for storage.
(§2) Magnetic beads were resuspended in 100 mM Tris pH 7.8, reduced, alkylated and digested with trypsin at 37° ° C. overnight. This solution was subjected to solid phase extraction to concentrate the peptides and remove unwanted reagents followed by injection onto a Shimadzu HPLC with fraction collector. Eight fractions were collected and after concentration were injected on a Waters NanoAcquity HPLC equipped with a self-packed Aeris 3 μm C18 analytical column 0.075 mm by 20 cm, (Phenomenex). Peptides were eluted using standard reverse-phase gradients. The effluent from the column was analyzed using a Thermo Orbitrap Elite mass spectrometer (nanospray configuration) operated in a data dependent manner for 54 minutes. The resulting fragmentation spectra were correlated against the known database using Proteome Discover 1.4 (Thermo Fisher Scientific).

HNRNPA1 = target: T2, HNRNPA1 (UniProt P09651 2-372); assay: as above
T2 construct: Endogenous protein found in the co-IP by mass spectrometry; also called NP_112420.1
T2 sequence (P09651 2-372 limits assumed): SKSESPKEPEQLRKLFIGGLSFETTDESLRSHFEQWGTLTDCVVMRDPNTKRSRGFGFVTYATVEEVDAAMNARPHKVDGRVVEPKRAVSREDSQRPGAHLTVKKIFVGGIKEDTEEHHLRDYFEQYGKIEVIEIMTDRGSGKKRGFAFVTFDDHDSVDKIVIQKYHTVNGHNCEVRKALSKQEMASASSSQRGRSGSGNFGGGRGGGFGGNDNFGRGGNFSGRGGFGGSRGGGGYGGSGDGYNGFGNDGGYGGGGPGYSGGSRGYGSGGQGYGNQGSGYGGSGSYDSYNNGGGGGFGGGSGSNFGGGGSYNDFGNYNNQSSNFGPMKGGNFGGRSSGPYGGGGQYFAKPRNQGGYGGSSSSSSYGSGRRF
Method: as §1, §2

RPS15A = RPS15A (UniProt P62244 2-130); assay: as above
Method: as §1, §2

ATXN2L = target: T3, ATXN2L (UniProt Q8WWM7 1-1075); assay: as above
T3 construct: Endogenous protein found in the co-IP by mass spectrometry; also called NP_009176.2
T3 sequence (looked up): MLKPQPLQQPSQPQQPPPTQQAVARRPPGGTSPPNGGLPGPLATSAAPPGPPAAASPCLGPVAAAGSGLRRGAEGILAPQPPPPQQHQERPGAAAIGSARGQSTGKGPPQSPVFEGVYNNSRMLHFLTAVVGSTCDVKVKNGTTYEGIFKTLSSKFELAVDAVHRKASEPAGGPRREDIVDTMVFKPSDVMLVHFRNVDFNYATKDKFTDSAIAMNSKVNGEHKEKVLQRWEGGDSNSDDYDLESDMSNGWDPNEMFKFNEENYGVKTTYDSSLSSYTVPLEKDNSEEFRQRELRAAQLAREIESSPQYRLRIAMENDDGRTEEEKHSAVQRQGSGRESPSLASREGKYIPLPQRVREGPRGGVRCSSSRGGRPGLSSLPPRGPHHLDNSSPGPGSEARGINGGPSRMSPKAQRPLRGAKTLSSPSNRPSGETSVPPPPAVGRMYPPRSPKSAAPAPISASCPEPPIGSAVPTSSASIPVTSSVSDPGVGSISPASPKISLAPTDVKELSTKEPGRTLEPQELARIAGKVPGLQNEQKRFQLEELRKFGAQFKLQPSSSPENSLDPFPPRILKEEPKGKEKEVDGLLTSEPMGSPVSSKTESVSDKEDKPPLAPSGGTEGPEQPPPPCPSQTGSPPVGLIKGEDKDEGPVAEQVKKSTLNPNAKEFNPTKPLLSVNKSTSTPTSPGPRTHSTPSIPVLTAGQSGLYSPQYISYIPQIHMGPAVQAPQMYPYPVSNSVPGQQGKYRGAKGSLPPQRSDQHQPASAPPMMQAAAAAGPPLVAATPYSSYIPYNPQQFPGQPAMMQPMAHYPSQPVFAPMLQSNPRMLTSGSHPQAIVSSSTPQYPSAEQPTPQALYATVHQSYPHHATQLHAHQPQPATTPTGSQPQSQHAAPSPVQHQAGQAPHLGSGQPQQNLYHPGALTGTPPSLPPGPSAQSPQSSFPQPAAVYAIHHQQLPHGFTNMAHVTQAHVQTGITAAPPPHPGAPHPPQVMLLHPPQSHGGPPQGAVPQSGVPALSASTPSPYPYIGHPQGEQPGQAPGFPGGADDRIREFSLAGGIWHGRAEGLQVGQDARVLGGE
Method: as §1, §2

Row | Binder | co-IP/MS count, N-term FLAG (NAP1L1) | co-IP mass spectrometry count (RPL11) | co-IP mass spectrometry count (HNRNPA1) | co-IP mass spectrometry count (RPS15A) | co-IP mass spectrometry count (ATXN2L)
1 | N-terminal FLAG tagged B3GNT2 (enzyme, human, UniProt Q9NY97 1-397, looked up, FLAG-tagged ORF overexpressed in A375 cells; pulled down from the lysate with mouse anti-FLAG; also called N-FLAG B3GNT2; N-term FLAG; not shown: N-terminal FLAG tag) MSVGRRRIKLLGILMMANVFIYFIMEVSKSSSQEKNGKGEVIIPKEKFWKISTPPEAYWNREQEKLNRQYNPILSMLTNQTGEAGRLSNISHLNYCEPDLRVTSVVTGFNNLPDRFKDFLLYLRCRNYSLLIDQPDKCAKKPFLLLAIKSLTPHFARRQAIRESWGQESNAGNQTVVRVFLLGQTPPEDNHPDLSDMLKFESEKHQDILMWNYRDTFFNLSLKEVLFLRWVSTSCPDTEFVFKGDDDVFVNTHHILNYLNSLSKTKAKDLFIGDVIHNAGPHRDKKLKYYIPEVVYSGLYPPYAGGGGFLYSGHLALRLYHITDQVHLYPIDDVYTGMCLQKLGLVPEKHKGFRTFDIEEKNKNNICSYVDLMLVHSRKPQEMIDIWSQLQSAHLKC | 0 |  |  |  | 
2 | N-terminal FLAG tagged B3GNT2 (enzyme, human, UniProt Q9NY97 1-397, looked up, FLAG-tagged ORF overexpressed in cells; bait of the anti-FLAG co-IP; also called N-FLAG B3GNT2; N-term FLAG; not shown: FLAG tag at the N-terminus) MSVGRRRIKLLGILMMANVFIYFIMEVSKSSSQEKNGKGEVIIPKEKFWKISTPPEAYWNREQEKLNRQYNPILSMLTNQTGEAGRLSNISHLNYCEPDLRVTSVVTGFNNLPDRFKDFLLYLRCRNYSLLIDQPDKCAKKPFLLLAIKSLTPHFARRQAIRESWGQESNAGNQTVVRVFLLGQTPPEDNHPDLSDMLKFESEKHQDILMWNYRDTFFNLSLKEVLFLRWVSTSCPDTEFVFKGDDDVFVNTHHILNYLNSLSKTKAKDLFIGDVIHNAGPHRDKKLKYYIPEVVYSGLYPPYAGGGGFLYSGHLALRLYHITDQVHLYPIDDVYTGMCLQKLGLVPEKHKGFRTFDIEEKNKNNICSYVDLMLVHSRKPQEMIDIWSQLQSAHLKC |  | 5 | 7 | 3 | 5
